Assay results published in the RNAGym collection of RNA variant scans (doi:10.1093/molbev/msab373).

B1: Azoarcus group I ribozyme (parent)
chain: GUGCCUUGCGCCGGGAAACCACGCAAGGGAUGGUGUCAAAUUCGGCGAAACCUAAGCGCCCGCCCGGGCGUAUGGCAACGCCGAGCCAAGCUUCGGCGCCUGCGCCGAUGAAGGUGUAGAGACUAGACGGCACCCACCUAAGGCAAACGCUAUGGUGAAGGCAUAGUCCAGGGAGUGGCGAAAGUCACACAAACCGG

Variants of: B1
Test: reverse-splicing fitness (ratio to wild type); higher = more active; in vitro selection; Mg2+ level not given
Method in brief: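 An in vitro group I ribozyme library with randomized positions was T7-transcribed and gel-purified. In triplicate, 10 pmol RNA in EPPS pH 7.5 was reacted with 50 pmoles of a 30-nt RNA substrate for 1 h at 37 °C across several added MgCl2 levels (1–48 mM), then stopped with EDTA. Products were reverse transcribed from a substrate-complementary primer, PCR-amplified and sequenced (HiSeq 4000). Fitness is a variant's read proportion after selection over that before, normalised to wild type.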

Variant	reverse-splicing fitness
C82A A111U A120C C150G C169A U176C	0.0122
C82A A111U A120C C150G C169A U176A	0.0125
C82A A111U A120C A145G C150U C169A U176G	0.00943
C82A A111U A120G A145C C150U C169G U176G	0.00608
C82A A111U A120G A145C C150U C169G U176A	0.0224
C82A A111U A120G A145C C150U C169G U176C	0.0134
C82A A111U A120G A145C U176C	0.012
C82A A111U A120G A145C U176A	0.0112
C82A A111U A120G A145C U176G	0.00543
C82A A111U A120C A145U C150U C169G U176C	0.0244
C82A A111U A120C A145U C150U C169G U176G	0.00736
C82A A111U A120C A145U C150U C169G U176A	0.016
C82A A111U A120G A145G C169A U176A	0.0222
C82A A111U A120G A145G C169A U176C	0.0259
C82A A111U A120G A145G C169A U176G	0.00503
C82A A111U A120C A145G C150U C169U U176A	0.0152
C82A A111U A120C A145G C150U C169U U176G	0.00781
C82A A111U A120C A145G C150U C169U U176C	0.0148
C82A A111U A120G A145G C150G U176G	0.00604
C82A A111U A120G A145G C150G U176C	0.0105
C82A A111U A120G A145G C150G U176A	0.00704

Variant	reverse-splicing fitness
C82A A111U A120C A145G C169A U176G	0.00699
C82A A111U A120C A145G C169A U176C	0.0332
C82A A111U A120C A145G C169A U176A	0.0312
C82A A111U A120G A145U C150A C169A U176G	0.00486
C82A A111U A120G A145U C150A C169A U176C	0.0119
C82A A111U A120G A145U C150A C169A U176A	0.0146
C82A A111U A120G A145U C150G C169U U176A	0.0104
C82A A111U A120G A145U C150G C169U U176C	0.0125
C82A A111U A120G A145U C150G C169U U176G	0.00545
C82A A111U A120C A145U C150U C169U U176C	0.0137
C82A A111U A120C A145U C150U C169U U176A	0.0157
C82A A111U A120C A145U C150U C169U U176G	0.00816
C82A A111U A120G A145C C169A U176G	0.0048
C82A A111U A120G A145C C169A U176A	0.0141
C82A A111U A120G A145C C169A U176C	0.00818
C82A A111U A120G A145C C150U C169A U176A	0.0127
C82A A111U A120G A145C C150U C169A U176G	0.00508
C82A A111U A120G A145C C150U C169A U176C	0.00677
C82A A111U A120C A145U U176A	0.0168
C82A A111U A120C A145U U176C	0.0276
C82A A111U A120C A145U U176G	0.00733

Variant	reverse-splicing fitness
C82A A111U A120C A145G C169U U176A	0.0178
C82A A111U A120C A145G C169U U176G	0.00584
C82A A111U A120C A145G C169U U176C	0.0156
C82A A111U A120C C150U U176A	0.0125
C82A A111U A120C C150U U176G	0.00805
C82A A111U A120C C150U U176C	0.022
C82A A111U A120G A145U C150A C169U U176G	0.00491
C82A A111U A120G A145U C150A C169U U176C	0.0164
C82A A111U A120G A145U C150A C169U U176A	0.0193
C82A A111U A120C A145U C169U	0.0129
C82A A111U A120C A145U C169G	0.0114
C82A A111U A120C A145U C169A	0.00981
C82A A111U A120G A145C C169G U176A	0.0247
C82A A111U A120G A145C C169G U176C	0.0184
C82A A111U A120G A145C C169G U176G	0.00418
C82A A111U A120C C150U C169U	0.0121
C82A A111U A120C C150U C169A	0.0109
C82A A111U A120C C150U C169G	0.00831
C82A A111U A120C A145G C150U U176C	0.0246
C82A A111U A120C A145G C150U U176G	0.00822
C82A A111U A120C A145G C150U U176A	0.0126

Variant	reverse-splicing fitness
C82A A111U A120G A145U C150U C169A U176A	0.0139
C82A A111U A120G A145U C150U C169A U176C	0.0139
C82A A111U A120G A145U C150U C169A U176G	0.0057
C82A A111U A120G A145U C150G C169G U176G	0.00488
C82A A111U A120G A145U C150G C169G U176A	0.00656
C82A A111U A120G A145U C150G C169G U176C	0.00476
C82A A111U A120G A145U C150A C169G U176A	0.0146
C82A A111U A120G A145U C150A C169G U176G	0.00492
C82A A111U A120G A145U C150A C169G U176C	0.0161
C82A A111U A120C A145U C169U U176C	0.0156
C82A A111U A120C A145U C169U U176A	0.0151
C82A A111U A120C A145U C169U U176G	0.00555
C82A A111U A120C C150A C169A U176A	0.0227
C82A A111U A120C C150A C169A U176G	0.0108
C82A A111U A120C C150A C169A U176C	0.0233
C82A A111U A120G A145G C150U U176A	0.00963
C82A A111U A120G A145G C150U U176G	0.00803
C82A A111U A120G A145G C150U U176C	0.0178
C82A A111U A120G A145C C150U C169G	0.00823
C82A A111U A120G A145C C150U C169U	0.00725
C82A A111U A120G A145C C150U C169A	0.00869
